Measured values: patent US20240218057A1 (ROCKEFELLER UNIVERSITY, published 2024)
Residue numbers refer to the chain shown, from its start.

B1: C906 (antibody, V domains shown)
VH: EVQLVESGGGLIKPGRSLRLSCTASGFTFGDYAMTWFRQAPGKGLEWVGFIRSKAYGGTTGYAASVKYRFTISRDDSKSIVYLQMDSLKTEDTAVYYCTRWDGWSQHDYWGQGTLVTVSS
VL: DIVMTQSPLSLSVTPGEPASISCRSSQSLLHSNGINYFDWYLQKPGQSPQLLIYLGSNRASGVPDRFSGSGSGTDFTLKISRVEAEDVGVYYCMQVLQIPYTFGQGTKLEI
B2: C914 (antibody, V domains shown)
VH: QVQLQESGPGLVKPSQTLSLTCTVSGGSITSGDYYWTWIRQPPGKGLEWIGYIYYSGNTYYNLSLRSRITISEDTSKNQFSLKLRSVTAADTAVYYCARAMITFGGVIVVLDYWGQGTLVTVSS
VL: QSALTQPPSASGSPGQSVTISCTGTSTDVGGYNFVSWYQQHPGKAPKLMIYEVSKRPSGVPDRFSGSKSGNTASLTVSGLQAEDEADYYCSSYAGSNILYVFGTGTKVTVL
B3: C915 (antibody, V domains shown)
VH: QVQLQESGPGLVKPSQTLSLTCTVSGGSISSGDYYWSWIRQPPGKGLEWIGYIYYSDSTYYNPSLRTRVTISVDTSKNQFSLKLTSVTAADTAVYYCARAMITFGGVIVLYDYWGQGTLVTVSS
VL: B2 VL with T27S, F34Y, S54T, D62A, N97I, I98L
B4: C916 (antibody, V domains shown)
VH: EVQLVESGGGLVQPGGSLRLSCAASGFTFSNYDMHWVRQATGRGLEWVSTIGTAGDTYYPGSVKGRFTISRENAKNSLYLQMNSLRAGDTALYYCARVRYDSSGYFWSLDYWGQGTLVTVSS
VL: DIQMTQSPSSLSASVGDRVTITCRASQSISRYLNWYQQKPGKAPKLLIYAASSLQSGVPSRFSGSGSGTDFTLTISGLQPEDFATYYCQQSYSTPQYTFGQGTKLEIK
B5: C917 (antibody, V domains shown)
VH: B4 VH with R43K, E46D, L92V, Y100F, S102T
VL: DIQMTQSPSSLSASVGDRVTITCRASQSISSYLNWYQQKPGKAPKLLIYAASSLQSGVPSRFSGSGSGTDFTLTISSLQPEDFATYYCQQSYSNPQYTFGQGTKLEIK
B6: C1019 (antibody, V domains shown)
VH: QVQLVESGGGVVQPGTPLRLSCAASGFTFSSYAMHWVRQAPGKGLEWVAMISYDGGNKYYADSVKGRFTISRDNSKNTLFLQMNSLRGEDTAVYYCARSFSIRIGHKDNWGQGTLVTVSS
VL: NFMLTQPHSVSESPGKTVTISCTGSSGSIANNYVQWYQQRPGSAPTPVIYEDDQRPSGVPDRFSGSIDSSSNSASLSISGLKTEDEADYYCQSYDSTNFWVFGGGTKLTVL
B7: C1024 (antibody, V domains shown)
VH: QVQLVESGGGVVQPGRSLRLSCAASGFTFSDYAMHWVRQAPGKGLEWVAMISYDGNSQYYADSVKGRFTISRDNSKNTLYLQMNILRPEDTAVYYCARTFSIRIGHHDYWGQGTLVTVSS
VL: B6 VL with N31S, Q35H, P47T, Y50F, D53N, S77T, T97S, N98S
B8: C1021 (antibody, V domains shown)
VH: QVQLVQSGAELKKPGASVKVSCKASGYTFSTYYIHWVRQAPGQGLEWMGIINPEAGSTSYAQKFQGRVTMTTDTSTSTVYMELISLRSQDTAIYYCARDAVGVPAINSLEYWGQGTLVTVSS
VL: EIVLTQSPATLSLSPGERATLSCRASQSISSYLAWYQQKPGQAPRLLIYDASNRATDISARFSGSGSGTDFTLTISSLEPEDFAVYYCQHRSNWPPSFTFGGGTKVEIK
B9: C907 (antibody, V domains shown)
VH: QVQLQESGPGLVKPSETLSLTCTVSGGSITSYYWTWIRQSPGKGLEWIGYIYYIGSTNYNPSLKSRLTISLATSKNQFSLRLNSVTAADTAVYYCASYYNDTSGYSYGLDVWGQGTTVTVSS
VL: DIQMTQSPSSLSAFVGDRVTITCRAGQSISSYLHWYQQKPGKAPKLLIYATSTLQSGVPSRFSGRGSGTDFTLTISGLQPEDFATYYCQQSYSTPQTFGQGTKVEIK
B10: C911 (antibody, V domains shown)
VH: QVQLVESGGGVVQPGGSLRLSCAASAFTFSSYAMHWIRQSPGKGLEWVAVISSDGSSKFYADSVKGRFTISRDNSKNTLYLQMNSLSAEDTAVYYCARDLENVLIEVALQDWGQGTLVTVSS
VL: DIQMTQSPSSLSASVGDRVTITCRASQSINSYLNWYQQKPGKAPKLLIYAASSLHSGVPSRFSGSGSGTDFTLTISSLQPEDFATYYCQQSYTTLALTFGGGTKVEIK
B11: C910 (antibody, V domains shown)
VH: QVQLVQSGAAVKKPGASVKVSCKASGYTFTSYDINWVRQAPGQGLEWMGWMNPNSGNTGFAQRFQGRATLSRDTSITTAYMELTTLRSEDTAVYYCARGRANYNSKFLLDNWGQGTLVTVSS
VL: QSALTQPASVSGSPGQSITISCTGTSSDVGSYNLVSWYQQHPGTAPKLMIYEGSKRPSGVSDRFSGYKSGNTASLTISGLQADDEADYYCCSFAGSTTRYVFGTGTRVTVL
B12: C918 (antibody, V domains shown)
VH: QVQLVESGGGLVKPGGSLRLSCTASGFTFSDYYMTWLRQAPGKGLEWVSYISSTSPYTSYADSVKGRFTISRDNARNSVYLQMNSLRAEDTAIYYCARVPPPQRLHPFDVWGQGTMVTVSS
VL: DIQMTQSPSTLSASVGDRVTITCRASQSISSWLAWYQQKPGKAPKLLIYQASSLESGVPSRFSGSGSGTDFTLTISSLQPDDFATYYCQQYFRYSWTFGQGTKVEI
B13: C1022 (antibody, V domains shown)
VH: QVQLVQSGAEVKTPGASVKVSCQASGDTFTSQYLHWVRQAPGQGLEWMGIINPTAGSTTYAQKFQGRVTMTRDTSTSTVYMELRSLRSEDMAVYYCARGGFIPMVRGFIDHWGQGTLVTVSS
VL: QSALTQPASVSGSPGQSITISCTGTSSDVGGYNYVSWYQQHPGKAPKLMIYDVSNRPSGVSTRFSGSKSGNTASLTISGLQAEDEADYYCSSPTSSNTHVFGTGTKVTVL
B14: C908 (antibody, V domains shown)
VH: EVQLVQSGAEVKKPGESLKISCKASGYSFTIYWIGWVRQMPGKGLEWMGIIYPGESETRYSPSFQGQVTISADKSISTAYLQWRSLKASDTAMYYCARGGPPGGVKLELTDYWGQGTLVTVSS
VL: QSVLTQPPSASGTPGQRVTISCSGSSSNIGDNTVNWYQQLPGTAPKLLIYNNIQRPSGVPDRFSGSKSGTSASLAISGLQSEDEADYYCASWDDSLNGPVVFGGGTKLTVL
B15: C903 (antibody, V domains shown)
VH: EVQLVESGGGLIQPGGSLRLSCAASGFIVSRNYMSWVRQAPGKGLEWVSIIYSGGSTFYADSVKGRFTISRDNSKNTVYLQMNSLRAEDTAVYYCARDYGDFYFDYWGQGTLVTVSS
VL: EIVLTQSPGTLSLSPGERATLSCRASQSVSSSYLAWYQQKPGQAPRLLIFDVSSRATGIPDRFSGSGSGTDFTLTISRLEPEDFAVYYCQQYGSSPRTFGQGTKVEIK
B16: C913 (antibody, V domains shown)
VH: EVQLVESGGVVVQPGGSLRLSCAASGFTFDDYSMHWVRQVPGKGLEWIAVIFWDGTSTYYADSVKGRFTISRDNSKKSLYLQMNSLRSEDTALYYCAKDSEDCSSTSCYVDHWGQGTLVTVSS
VL: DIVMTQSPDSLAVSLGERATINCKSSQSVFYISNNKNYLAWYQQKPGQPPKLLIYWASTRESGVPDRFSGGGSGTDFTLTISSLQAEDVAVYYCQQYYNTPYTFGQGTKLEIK
B17: C904 (antibody, V domains shown)
VH: QVQLQQWGAGLLKPSETLSLTCAVNGGSLSLYYWSWIRQSPGKGLEWIGEINHFGGSDYKPSLKSRVSISVDTSTNQFSLKLSSVTAADTAVYYCARKPLLHSNISPGAFDIWGQGTMVTVSS
VL: EIVLTQSPGTLSLSPGERATLSCRASQSVAGSYLAWYQQKPGQAPRLLIYGASSRATGVPDRISGSGSGTDFTLTISRLEPEDFAVYYCQQYTNTPRTFGGGTKVEI
B18: C905 (antibody, V domains shown)
VH: QVQLQESGPGLVTPSQTLSLTCSVSGGSIHSRDFYWGWIRQHPGKGLEWIGHIYYTGNTYYNPSLKSRVTISADTSKNQFSLKLSSVTAADTAVYYCARATVVITLHWFDPWGQGTLVTVSS
VL: NFMLTQPHSVSESPGKTVTISCTGSGGSIASNYVQWYQQRPGSAPTTVIYEDNERPSGVPDRFSGSIDSSSNSASLTISGVKTEDEADYFCQSYDVGNPVIFGGGTKLTVL
B19: C1023 (antibody, V domains shown)
VH: QVQLVQSGAEMKKPGASVKISCKASGDTFTTNYFHWVRQAPGQGLEWMGIINPSAGSTTYAQRFQGRVTMTGDSSTNTVYLELRSLRSEDTAMYFCAKGSYIPAMRSSFDPWGQGTLVTVSS
VL: EIVLTQSPGTLSLSPGERATLSCRASQSVSHRYLAWYQQKPGQAPRLLIDGASNRATGIPDRFSGSGSGTDFTLTISRLEPEDFGVYYCQQYGSSPPFTFGQGTKLEIK
B20: C920 (antibody, V domains shown)
VH: QLQLQESGPGLVKPSETLSLTCAVSGGSISNSPFYWGWIRQPPGKGLECIGSIYYSGSTYYNPSLKSRVTISVDTSKKQFSLKLSSVTAADTAVYYCARHFADGSGRVVDSWGQGILVTVSS
VL: EIVLTQSPATLSLSPGERATLSCRASQSVSSYLAWYQQKPGQAPSLLIYDVSNRATGIPARFSGSGSGTDFTLTISSLEPEDFAVYYCQQRINWPLYTFGQGTKLEIK
B21: C921 (antibody, V domains shown)
VH: B20 VH with G37A, S56T, K77T, S85R, S111Y, I116T
VL: B20 VL with S30T, S31T, S45R, N53S, I92S
B22: C1018 (antibody, V domains shown)
VH: QVQLVESGGGVVQPGRSLRLLCAASGFTFNTHGMHWVRQAPGKGLEWVAVIWFDGSNKYYADSVKGRFTISRDNSTNTLYLQMNSLRAEDTAVYYCARVYGGLPYYYAIDVWGQGTTVTVSS
VL: QSVLTQPPSVSGAPGQRVTISCAGSSSNIGAGYGVHWSQQLPGRPPKLLIYGDSNRPSGVPDRFSGSNSGTSASLAITGLQAEDEAVYYCQSYDRSLRAWVFGGGTKLSVL
B23: C909 (antibody, V domains shown)
VH: QVQLVQSGAEVKKPGASVKVSCRASGYTFPNYDLNWVRQATGQGLEWMGWMNPNSGNTGYAQKFQGRITMTRITSISTAYMELSSLRSEDTAVYYCARGRANWNSNFLLDSWGQGTLVTVSS
VL: QSALTQPASVSGSPGQSITISCTGTSSDVGGYNLVSWYQQYPGNVPKLMIYEDAKRPSGVSNRFSGSKSANTASLTISGLQAEDEADYYCCSYAGSSTRYVFGTGTKVTVL
B24: C1020 (antibody, V domains shown)
VH: QVQLVQSGAEVKKPGASVKISCKASGYSFSNYYIHWVRQAPGQGLEWMGIINPSGNSISYAQKFQGRVTMTGDTSTSTVYMELSSLRSEDTAVYYCARSVFPVPAAGGCDYWGQGTLVTVSS
VL: DIQMTQSPSSLSASVGDRVTITCRASQSITTSLNWYQQKPGKAPKLLIYSASTLESGVPSRFSGSGSGTDFTLTISSLQPEDFATYYCQQTYRAPPYTFGQGTKLEIK
B25: C912 (antibody, V domains shown)
VH: QVQLVESGGGVVQPGRSLRLSCAASGFSFSTYTMHWVRQTPDKGLEWVAVISDDGKNKYYADSMKGRFTISRDNSKNTLYLQMSSLRPEDTAVYYCARDLENVMIEVALESWGQGTLVTVSS
VL: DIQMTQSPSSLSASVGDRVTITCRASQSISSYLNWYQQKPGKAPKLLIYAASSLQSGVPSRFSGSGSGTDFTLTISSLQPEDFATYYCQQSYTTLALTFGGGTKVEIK

Target: T1, SARS-COV-2 RBD (SARS-COV-2, UniProt P0DTC2 319-539)
T1 construct: also called WT RBD
Test: ELISA, RBD coated on plate

| Binder | EC50 |
| --- | --- |
| B1 | 1.07 ng/mL |
| B2 | 1.59 ng/mL |
| B3 | 3.49 ng/mL |
| B4 | 1.97 ng/mL |
| B5 | 1.05 ng/mL |
| B6 | 2.8 ng/mL |
| B7 | 2.37 ng/mL |
| B8 | 2.53 ng/mL |
| B9 | 3.71 ng/mL |
| B10 | 2.36 ng/mL |
| B11 | 2.47 ng/mL |
| B12 | 1.78 ng/mL |
| B13 | 1.66 ng/mL |
| B14 | 1.27 ng/mL |
| B15 | 2.54 ng/mL |
| B16 | 2.58 ng/mL |
| B17 | 3.31 ng/mL |
| B18 | 3.06 ng/mL |
| B19 | 1.13 ng/mL |
| B20 | 2.35 ng/mL |
| B21 | 3.91 ng/mL |
| B22 | 3.09 ng/mL |
| B23 | 3.24 ng/mL |
| B24 | 2.06 ng/mL |
| B25 | 2.45 ng/mL |
